Data reported in patent US20210238292A1 (VACCINEX, published 2021).
Like-named read-outs stand apart in the source and are kept apart here. Blank lines part the entries; values can stand above or below the molecule they belong to.

Key:
[1] = target: human CCR8 (C-C chemokine receptor type 8) expressed on cells (human) (UniProt P51685); assay: flow cytometry competition on Raji-CCR8 cells; competitor: fluorescently-conjugated BIOLEGEND anti-human CCR8 antibody at a single concentration
[2] = target: T1, human CCR8 (C-C chemokine receptor type 8) expressed on cells (human, UniProt P51685 1-355); assay: flow cytometry, HuCCR8-293T cells, fold geomean over secondary alone
T1 construct: also called HuCCR8
T1 sequence (P51685 whole entry): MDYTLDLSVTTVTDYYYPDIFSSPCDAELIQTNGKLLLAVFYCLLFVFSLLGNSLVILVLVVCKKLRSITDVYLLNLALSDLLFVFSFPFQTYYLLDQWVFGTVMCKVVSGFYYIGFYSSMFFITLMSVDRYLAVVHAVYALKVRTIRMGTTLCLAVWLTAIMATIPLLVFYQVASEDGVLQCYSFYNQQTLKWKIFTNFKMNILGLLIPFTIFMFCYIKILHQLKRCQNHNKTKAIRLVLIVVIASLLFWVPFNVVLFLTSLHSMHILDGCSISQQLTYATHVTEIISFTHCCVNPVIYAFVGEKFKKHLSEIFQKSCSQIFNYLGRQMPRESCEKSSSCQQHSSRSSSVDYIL

[3] = target: T2, Cynomolgus CCR8-ECD-Fc (cynomolgus monkey); assay: binding to CyCCR8-ECD-Fc protein, OD 450-570 nm
T2 construct: also called CyCCR8-ECD-Fc; Cynomolgus CCR8-Fc
T2 chain: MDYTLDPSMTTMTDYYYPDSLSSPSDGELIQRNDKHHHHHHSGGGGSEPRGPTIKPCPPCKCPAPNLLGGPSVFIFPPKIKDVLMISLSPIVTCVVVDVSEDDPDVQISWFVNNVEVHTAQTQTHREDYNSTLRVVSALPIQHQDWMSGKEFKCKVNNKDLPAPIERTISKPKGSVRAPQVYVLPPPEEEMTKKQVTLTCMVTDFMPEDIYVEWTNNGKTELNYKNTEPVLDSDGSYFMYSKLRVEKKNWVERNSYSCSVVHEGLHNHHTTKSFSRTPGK

[4] = target: T3, cynomolgus monkey CCR8 expressed on cells (cynomolgus monkey, UniProt G7NYJ2 1-355); assay: flow cytometry, CyCCR8-293T cells, fold geomean over secondary alone
T3 construct: whole, on cells; also called cyno CCR8; CyCCR8

[5] = target: T4, Human CCR8-ECD-Fc (human); assay: binding to HuCCR8-ECD-Fc protein, OD 450-570 nm
T4 construct: also called HuCCR8-ECD-Fc; huCC8-ECD-Fc
T4 chain: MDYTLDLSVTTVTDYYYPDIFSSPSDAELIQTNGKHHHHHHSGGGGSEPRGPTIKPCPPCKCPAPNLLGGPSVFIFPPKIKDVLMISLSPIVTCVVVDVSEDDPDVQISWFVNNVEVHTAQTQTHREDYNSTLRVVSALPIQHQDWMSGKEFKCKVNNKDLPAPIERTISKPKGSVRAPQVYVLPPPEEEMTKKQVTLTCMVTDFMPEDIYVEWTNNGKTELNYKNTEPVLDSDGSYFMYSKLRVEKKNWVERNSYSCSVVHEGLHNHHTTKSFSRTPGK

[6] = target: T1, human CCR8 (C-C chemokine receptor type …); assay: on-cell affinity, flow cytometry on 293T cells expressing human CCR8
[7] = target: T3, cynomolgus monkey CCR8 expressed on …; assay: on-cell affinity, flow cytometry on 293T cells expressing cyno CCR8
Target sequence in this assay (G7NYJ2 entry or part of it): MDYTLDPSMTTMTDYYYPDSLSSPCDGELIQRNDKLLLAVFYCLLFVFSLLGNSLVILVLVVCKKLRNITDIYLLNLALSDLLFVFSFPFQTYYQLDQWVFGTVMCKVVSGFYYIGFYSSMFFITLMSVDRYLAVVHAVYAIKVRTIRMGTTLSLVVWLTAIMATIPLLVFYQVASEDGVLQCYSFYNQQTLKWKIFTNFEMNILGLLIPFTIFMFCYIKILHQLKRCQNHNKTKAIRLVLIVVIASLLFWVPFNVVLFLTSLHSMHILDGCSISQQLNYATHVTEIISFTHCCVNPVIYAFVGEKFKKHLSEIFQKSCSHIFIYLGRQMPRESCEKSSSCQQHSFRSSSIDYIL

[8] = target: T2, Cynomolgus CCR8-ECD-Fc; assay: binding to CyCCR8-ECD-Fc protein, OD 450-570 nm
[9] = target: T4, Human CCR8-ECD-Fc; assay: binding to HuCCR8-ECD-Fc protein, OD 450-570 nm
[10] = target: T1, human CCR8 (C-C chemokine receptor type …); assay: flow cytometry, HuCCR8-293T cells, fold geomean over secondary alone; remark: listed apart in the source
[11] = target: T3, cynomolgus monkey CCR8 expressed on …; assay: flow cytometry, CyCCR8-293T cells, fold geomean over secondary alone; remark: listed apart in the source
[12] = target: T1, human CCR8 (C-C chemokine receptor type …); assay: flow cytometry, HuCCR8-293T cells, fold geomean over secondary alone; remark: listed apart in the source
[13] = target: T4, Human CCR8-ECD-Fc; assay: binding to HuCCR8-ECD-Fc protein, OD 450-570 nm
[14] = target: T2, Cynomolgus CCR8-ECD-Fc; assay: binding to CyCCR8-ECD-Fc protein, OD 450-570 nm
[15] = target: T4, Human CCR8-ECD-Fc; assay: binding to HuCCR8-ECD-Fc protein, OD 450-570 nm
[16] = target: T3, cynomolgus monkey CCR8 expressed on …; assay: flow cytometry, CyCCR8-293T cells, fold geomean over secondary alone; remark: listed apart in the source
[17] = target: T1, human CCR8 (C-C chemokine receptor type …); assay: flow cytometry, HuCCR8-293T cells, fold geomean over secondary alone; remark: listed apart in the source
[18] = target: T2, Cynomolgus CCR8-ECD-Fc; assay: binding to CyCCR8-ECD-Fc protein, OD 450-570 nm
[19] = target: T3, cynomolgus monkey CCR8 expressed on …; assay: flow cytometry, CyCCR8-293T cells, fold geomean over secondary alone; remark: listed apart in the source
[20] = target: T4, Human CCR8-ECD-Fc; assay: binding to HuCCR8-ECD-Fc protein, OD 450-570 nm
[21] = target: T1, human CCR8 (C-C chemokine receptor type …); assay: flow cytometry, HuCCR8-293T cells, fold geomean over secondary alone; remark: listed apart in the source
[22] = target: T2, Cynomolgus CCR8-ECD-Fc; assay: binding to CyCCR8-ECD-Fc protein, OD 450-570 nm
[23] = target: T1, human CCR8 (C-C chemokine receptor type …); assay: on-cell affinity, flow cytometry on 293T cells expressing human CCR8; remark: listed apart in the source
[24] = target: T2, Cynomolgus CCR8-ECD-Fc; assay: binding to CyCCR8-ECD-huFc protein (so in the source), OD45-570nm (so in the source)
[25] = target: T5, mouse CCR8 expressed on 293T cells (mouse, UniProt P56484 1-353); assay: flow cytometry, mouseCCR8-293T cells, fold geomean over secondary alone
T5 construct: whole, on cells
T5 sequence (looked up): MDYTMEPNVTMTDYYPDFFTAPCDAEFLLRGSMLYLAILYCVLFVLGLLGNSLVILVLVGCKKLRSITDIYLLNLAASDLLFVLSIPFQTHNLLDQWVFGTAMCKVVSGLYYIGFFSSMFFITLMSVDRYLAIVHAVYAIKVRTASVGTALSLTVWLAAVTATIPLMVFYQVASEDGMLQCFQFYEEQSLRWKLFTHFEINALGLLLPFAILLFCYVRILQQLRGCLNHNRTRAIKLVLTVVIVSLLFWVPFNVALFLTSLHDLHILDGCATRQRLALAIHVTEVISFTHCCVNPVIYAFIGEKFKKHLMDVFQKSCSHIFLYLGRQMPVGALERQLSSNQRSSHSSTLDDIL

[26] = target: T4, Human CCR8-ECD-Fc; assay: binding to HuCCR8-ECD-moFc protein (so in the source), OD45-570nm (so in the source)

Sequence of human CCR8 (C-C chemokine receptor type 8) expressed on cells (human) (P51685 whole entry): as the sequence (P51685 whole entry) above

- IC50 (read off the curve) [1]: 0.03 µg/mL
Molecule: Biolegend control (antibody)

- EC50 (read off the curve) [2]: ~0.4 µg/mL
- EC50 (read off the curve) [3]: ~0.03 µg/mL
- EC50 (read off the curve) [4]: ~1 µg/mL
- EC50 (read off the curve) [5]: ~0.03 µg/mL
- Kd [6]: 2.5 nM
- Kd [7]: 3.9 nM
B1: anti-CCR8-2-3 (antibody, V domains shown)
VH: EVQLVESGGGLVQPGRSLRLSCAASGFTFDDYAMHWVRQAPGKGLEWVSGISWNSGSIGYADSVKGRFTISRDNSKNSLYLQMNSLRAEDTALYYCARGRKSYRDSLRFDYWGQGTLVTVSS
VL: QSVLTQPPSVSAAPGQKVTISCSGSSSNIGNNYVSWYQQLPGTAPKLLIYDNNKRPSGIPDRFSGSKSGTSATLGITGLQTGDEADYYCGTWDSSLSAWVFGGGTKLT
notes: Human IgG from a mammalian expression vector in CHO cells; also called heavy chain H23499

- EC50 (read off the curve) [8]: ~0.04 µg/mL
- Kd [6]: 2.4 nM
- EC50 (read off the curve) [9]: ~0.04 µg/mL
- EC50 (read off the curve) [10]: ~0.6 µg/mL
- Kd [7]: 3.9 nM
B2: anti-CCR8-2-10 (antibody, V domains shown)
VH: EVQLVESGGGLVQPGRSLRLSCAASGFTFDDYAMHWVRQAPGKGLEWVSGISWNSGSIGYADSVKGRFTISRDNSKNSLYLQMNSLRAEDTALYYCARGRKSYRDSLRFDYWGQGTLVTVSS
VL: QSVLTQPPSVSAAPGQKVTISCSGTSSNIGKNFVSWYQQLPGTAPKLLIYDDNKRPSGIPDRFSGSKSATSATLGITGLQTGDGADYYCGTWDSSLSAWVFGGGTKLTVL
notes: Human IgG

- EC50 (read off the curve) [11]: ~1 µg/mL
- EC50 (read off the curve) [12]: ~0.4 µg/mL
- EC50 (read off the curve) [13]: ~0.04 µg/mL
- Kd [6]: 1.5 nM
- EC50 (read off the curve) [14]: ~0.04 µg/mL
- Kd [7]: 2.5 nM
B3: anti-CCR8-2-8 (antibody, V domains shown)
VH: EVQLVESGGGLVQPGRSLRLSCAASGFTFDDYAMHWVRQAPGKGLEWVSGISWNSGSIGYADSVKGRFTISRDNSKNSLYLQMNSLRAEDTALYYCARGRRSYRDSLRFDYWGQGTLVTVSS
VL: QSVLTQPPSVSGAPGQRVTISCTGSGSNIGNNYVSWYQQLPGTAPKMLIYDNTRRPSGIPDRFSGSKSDTSATLGITGLQTGDEADYYCGAWDSSLRMWVFGGGTKLTVL
notes: Human IgG

- EC50 (read off the curve) [15]: ~0.04 µg/mL
- EC50 (read off the curve) [16]: ~1 µg/mL
- EC50 (read off the curve) [17]: ~0.4 µg/mL
- EC50 (read off the curve) [18]: ~0.04 µg/mL
- Kd [6]: 1.3 nM
- Kd [7]: 3.5 nM
B4: anti-CCR8-2-7 (antibody, V domains shown)
VH: EVQLVESGGGLVQPGRSLRLSCAASGFTFDDYAMHWVRQAPGKGLEWVSGISWNSGSIGYADSVKGRFTISRDNSKNSLYLQMNSLRAEDTALYYCARGRDSYRKSLRFDYWGQGTLVTVSS
VL: QSVLTQPPSVSGAPGQRVTISCTGSGSNIGNNYVSWYQQLPGTAPKMLIYDNTRRPSGIPDRFSGSKSDTSATLGITGLQTGDEADYYCGAWDSSLRMWVFGGGTKLTVL
notes: Human IgG

- EC50 (read off the curve) [19]: ~0.4 µg/mL
- EC50 (read off the curve) [20]: ~0.04 µg/mL
- Kd [6]: 1.5 nM
- EC50 (read off the curve) [21]: ~0.4 µg/mL
- Kd [7]: 3.2 nM
- EC50 (read off the curve) [22]: ~0.04 µg/mL
B5: anti-CCR8-2-9 (antibody, V domains shown)
VH: EVQLVESGGGLVQPGRSLRLSCAASGFTFDDYAMHWVRQAPGKGLEWVSGISWNSGSIGYADSVKGRFTISRDNSKNSLYLQMNSLRAEDTALYYCARGRKSYRDSLRFDYWGQGTLVTVSS
VL: QSVLTQPPSVSGAPGQRVTISCTGSGSNIGNNYVSWYQQLPGTAPKMLIYDNTRRPSGIPDRFSGSKSDTSATLGITGLQTGDEADYYCGAWDSSLRMWVFGGGTKLTVL
notes: Human IgG

- Kd [23]: 1.06 nM
B6: anti-CCR8-parental-1 (antibody, V domains shown)
VH: QVQLVQSGAEVKKPGASVKVSCKASGYTFTSYYMHWVRQAPGQGLEWMGIINPSGGSTSYAQKFQGRVTMTRDTSTSTVYMELSSLRSEDTAVYYCARGVGNGFRFDYWGQGTLVT
VL: QSALTQPASVSGSPGQSITISCTGTSSDVGSYNLVSWYQQHPGKAPKLMIYEVSKRPSGVSNRFSGSKSGNTASLTISGLQAEDEADYYCSSYAGSSTFVVFGGGTKLTVL
notes: Full-length human IgG; also called parental antibody; H23188/L1037

- binding result [24]: binds
- binding result [25]: no binding (tested: 10 ug/ml)
- binding result [26]: binds
- Kd [23]: 1.38 nM
B7: anti-CCR8-1-3 (antibody, V domains shown)
VH: QVQLVQSGAEVKKPGASVKVSCKASGYTFTSYYMHWVRQAPGQGLEWMGIINPSGGSTSYAQKFQGRVTMTRDTSTSTVYMELSSLRSEDTAVYYCARGVGNGFRFDYWGQGTLVT
VL: QSALTQPPSVSGSPGQSITISCSGTSSDVGIYNLVSWYQQHPGKAPKLIIYEVIKRPSGISNRFSGFKSGNTASLTISGLQAEDEADYYCSSYAGPVTYVVFGGGTKLTVL
notes: Parental-1 heavy chain with a shuffled lambda light chain; Human IgG expressed in CHO cells
